# B1: TPR t1 (parent)
# chain: GACCAAUCUGCCCUCAGAGCUCGAGAACAUCUUCGGAUGCAGAGGAGGCAGGCUUCGGUGGCGCGAUAGCGCCAACGUCCUCAACCUCCAAUGCAUCCCACCACAUGAUGAUGCCUGAAGAGCCUUGGUUUUUUG
# Variants of: B1
# Test: polymerase ribozyme fitness, log enrichment relative to wild type (log ratio); higher = more active; in vitro selection for triplet polymerase activity
# How it was run: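 After PCR construction and transcription, each subunit's mutant library from a heterodimeric triplet polymerase ribozyme was annealed with a biotinylated primer, the partner subunit and triplets. Incubation was frozen, at −7 °C, and extended constructs were gel-excised, bound to streptavidin beads and amplified by RT-PCR, in one selection round done in triplicate. Fitness is the logarithm of a genotype's enrichment divided by that of the wild type, from inverse-variance-weighted replicate averages of Illumina-sequenced inputs and outputs. The base of the logarithm is 2, and genotypes needed ≥10 input reads and ≥1 read per output.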
row,Variant,polymerase ribozyme fitness (log ratio)
1,GACCAGUCUGCCCUCAGAGCUCGAGAACAUCUUCGGAUGCAGAGGAGGCAGGCUUCGGUGGCGCGUUAGCGCGAUCGUCUUCAACCUCCAAUGCAUCCCACCACAUGAUGAUGCCUGAAUAGCCUUGGGUUUUUG [A6G A66U C73G A75U C80U G120U U129G],-4.99
2,GACCAAUCUGCACUCAGAGCUCGAGAACAUCUUCGGAUGCUGAGAAGGCAGGCUUCGGUGGCGAGAUAGCGCCAACGUCCUCAACCCCCAAUGCAUCCCCCCACAUGAUGAUGCCCGAAGAGCCUUGGUUUUUUG [C12A A41U G45A C64A U87C A100C U116C],-6.47
3,GACCAAUCUGCCCUCAGAGCCCGAGAACAUCUUCGGAUUCAGAGGAGGCAGGCUUUGGUGGCGCGAUAGCGCCAACGUCCUCAACCUCCAAUGCAUCCCAUCACAUGAUGAAGCCUGAAGAGCCUUGGUUUUUUG [U21C G39U C56U C101U U112A],-0.219
4,GACCAAUCUGCCCUCAGAGCUCGAGAACAUCUUCGGAUGCAGAGGAGGCAGGCUUCGGUGGCGCGAUAGCGCCAACAUCUUCAACCUCCAAUGCAUCACACCACAUGAUGAUGCCUGAAGAGGCUUGGUUUUUUG [G77A C80U C98A C123G],-4.14
5,GACCAAUCUGCCCUCAGAGCUCGAGAACAUCUUCGGAUGCAUAGGAGGCAGGGUUCGGUGGCGCGAUAGCGCCAACGUCCUCAACCUCCAAUGCAUCCCACCACAUGAUGAUGCCUGAAGAGCCUUGGUUUUUUG [G42U C53G],-1.45
6,GACCAAUCUGCCCUCAGAGCUCGAGAACAUCUUCGGAUGAAGAGGAGGCAGGCUUCGGUGGCGCGAUAGCGGCAACGUCCUCAACCUCCAAUGCAUCCCACCACAUGAUGAUGCCUGAUGAGCCUUGGUCAUUUG [C40A C72G A119U U130C U131A],-1.75
7,GACCAAUCUGCCCUCAGAGCUCGAGAGCAUCUUCGGAUGCAGAGGAGGAAGGCUUCGGUGGCGCGAUAGCGCCAACGUCCUCAACCUCCAAUGCAACCCACCACAUGAUGAUGCCUGAAGAGCCUUGGUUUUUUG [A27G C49A U96A],-3.34
8,GAUCAAUCUGCCCUCAGAGCUCGAGAACAUCUUCGGAUGCAGAGGAGGCAGGCUUCGGUGGCGCGAUAGCGUCAACGUCCUCAACCUCCAAUGCAUCCCACCACAUGAUGAUGCCUGAAGAGCCUUGGUUUUUUG [C3U C72U],-0.173
9,GUCCAAUGUGCCCUCAGAGCUCGAGACCAUCUUCGCAUGGAGAGGAGGCAGGCUUCGGUAGCGCGAUAGCGCCAACGUCCUCAACCUCCAAUCCAUCCCACCACAUGAUUAUGCCUGAAGAGCCUUGGUGUUUUG [A2U C8G A27C G36C C40G G60A G93C G110U U130G],-5.89
10,GACCAAUCUGCCCUCAGAGCUCGAGAACAUCUUCGGAUGCAGAGGAGGCAGGUGUUGGUGGCGCGAUAGCGCCAACGUCCUCAACCUCCAAUGCAUCCCACCACAUGAUGAUGCCUGAAGAGCCUUGGCUUUGUG [C53U U54G C56U U129C U133G],-0.985
11,GACCAAUCUGCCCUCAGCGCUCGAGAACAUCUUCGGAUGCAGAGGAGGCAGGCUUCGGUGGCGCGAUAGCGCCAACGUCCUAAUCCUCCAAUGCAUCCCACCACAUGAUGAUGCCUGAAGAGCCUUGGUUUUUUG [A18C C82A A84U],-3.72
12,GACCAAUCUGCCCUCAGAGCUCGAGAAUAUCUUCGGAUGCAGAGGAGGAAGGCUUCGGUGUCGCGAUAGCGCCAACGUCCUCAACUUCCAAUGCAUCCCACCACAUGAUGAUGCCUGAAGAGCCUUGGUUUUUUG [C28U C49A G61U C86U],-2.72
13,GACCAAUCUGCCCUCAGCGCUCGAGAACAUCUUCGGAUGCAGAGGAGGCAGGCUUCGGUGGCGCGAUAACGCCAACGUCCUCAACCUCCAAUGCAUCCCACCACAUGAUGAUGCCUGAAGAGCCUUGGUUUUUUG [A18C G69A],-6.17
14,GACCAAUCUGCCCUCAGAGCUCGAGAACAUCUUCGGAUACAGAGGAGGCAGGCUUCUGUGGCGCGAUAGCGCCAACGUCAUCAACCUCCAAUGCAUCCCACCACAUGAUGAUGCCUGAAGCGCCUUGGUUUUUUG [G39A G57U C80A A121C],0.47
15,GACCAAUCUGCCCUCAGAGCUCGAGAACAUCUUCGGAUGAAGAGUAGGCAGGCUUCGGUGGCGCGAUAGCGCCAACGUCCUCAACCUCCAAUGCAUCCCACCACAUGAUAAUGCCUGAAGAGCCUUGGUUUUUUG [C40A G45U G110A],-4.4
16,GACCAAUCUGCCCUCAGAGCUCGAGUACAUCUUCGGAUGCAGAGGAGGUAGGCUUCGGUGGCGCGAUAGCGCCAACGUCCUCAACCUCCAAUGCAUCUCACCACAUGAUGAUGCCUGAAGAGCCUUGGUUUUUUG [A26U C49U C98U],-4.89
17,GACCAAUCUGCCCUCAGAGCUCGAGAACAUCUUCGGAUGCAGAGGAGGCAGGCUUCGGUGUCGCGAUAGCGCCAACGUCCUCAACCUCCAAUGCAUCUCACCACAUGAUGAUGCCUGAAGAGCCUUGGUUUUUUG [G61U C98U],-1.55
18,GACCAAUCGGCCCUCAGAGCUCGAGAACAUCUUCGGAUGCAGAGGAGGCAGGCUUCGGUGGCGCGAUAGCGCCAACGUCCUCAACCUCCAAUGCAUCCAACCACAUGAUGAUGCCUGAAGAGCCUUGGUUUUUUG [U9G C99A],-5.82
19,GACCAAUCUGCCCUCAGAGCUCGAGAACAUCUUCGGAUGCAGAGUAGGCAGGCUUCGGUGGCGCGAUAGCGCCAACGUCCUCAACCUCCAAUGCAACCCACCACAUGAUGAUGCCUGAAGAGCCUUGGUUUAUUG [G45U U96A U132A],-2.11
20,GACCAAUCUGCCCUCAGAGCUCGAGAAUAUCUUCGGAUGCAGAGGAGGCAGGCUUCGGUGGCGCGAUAGAGCCAACGUCCUCAACCUCCAAUGCAUCCCACCACAUGAUGAUGCCUGAAGAGCCUUGGUUUUUUG [C28U C70A],-4.5
21,GACCAAUCUGCCCUCAGAGCUCGAGAACAUCUUCGGAUGCAGUGGAGGCAGGCUUCGGUAGCGCGAUAGCGCCAACGUCCUCAACCUCCAAUGCAUCCCACCACAUGAUGAUGCCUGAACAGCCUUGGUUUUUUG [A43U G60A G120C],-1.01

row,Variant,polymerase ribozyme fitness (log ratio)
1,GACCAAUCUGCCCUCAGAGCUCGAGAACAUCUUCGGAUGCAGAGGAGGCAGGCUUCGGUGGCGCGAUAGCGCCAACGUCCUCAACCUCCAAUGCAUCACACCAUAUGAUGAUGCCUGAAGAGCCUUGGUUUUUUG [C98A C104U],-4.88
2,GACCAAUCUGCCCUCAGAGCUCGAGAACAUCUUCGGAUGCAGAGGAGGCAGGCUUCGGUGGCGCGAUAGCGCUAACGUCCUCAACCUCCAAUGCAUCCCACCACAUGAUGAUGCCUGAUGAGCCUCGGUUUUUUG [C73U A119U U126C],-0.929
3,GACCAAUCUGCCCUCAGAGUUCGAGAACAUCUUCGGAUGCAGAGGAGGCAGGCUUCGGUGGCGCGAUAGCGCCAACGUCCUCAACCUCCAAUGCAUCCCACCACAUGAUGAUGGCUGAAGAGCCUUGGUUUUUUG [C20U C114G],-1.55
4,GACCAAUCUGCCCUCAGAGCUCGAGAACAUCUUCGGAUGCACAGGAGGCAGGCUUCGGUGACGCGAUAGCGCCAACGUCCUCAACCUCCAAUGCAUCCCACCACAUGAUGAUGCCUGAAGAGCCUUGGUUUUUUG [G42C G61A],-0.466
5,GACCAAUCUGCCCUCAGAGCUCGAGAAAAUCUUCGGAUGCAGAGGAGGCAGGCUUCGGUGGCGCGAUAGCGCCAACGUCCUCAACCUCCAAUCCAUCCCACCACAUGAUAAUGCCUGAAGAGCCUUGGUUUUUUG [C28A G93C G110A],-0.645
6,GACCAAUCUGCCCUCAGAGCUCGAGAACAUCUUCGGAUGCAGAGGAGGCAGGCUUCGGUGGCGCGAUAGCGACAACGUCCUCAACCUCCAAUGCAUCCCACCACAUGAUGAUGCAUGAAGAGCCUUGGUUUUUUG [C72A C115A],-0.416
7,GACCAAUCUGCCCUCAGAGCUCGAGAACAUCUUCGGAUGCAGAGCAGGCAGGCUUCGGUGGCGCGUUAGCGCCAACGUGCUUAACCUCCAAUGCAUCCCACCACAUGAUGAUGCCUGAAGAGCCUUGGUUUUUUG [G45C A66U C79G C82U],-3.83
8,GACCAAUCCGCCCUAAGAGCUCGAGAACAUCUUCGGAUGCAGAUGAGGCAGGCUUCGGUCGCGCGAUAGCGCCAACGUCCUCAACCUCCAUUGCAUCCCACCACAUGAUGAUGCCUGAAGGGCCUUGGUUUUUUG [U9C C15A G44U G60C A91U A121G],-1.08
9,GACCAAUCUGCCCUCAGAGCUUGAGAACAUCUUCGGAUGCAGAGGAGGCAGGCUUCGGUGGCGCGAUAGCGCCAACGUCCUCAACCUCCAAUGCAUCCCACCACUUGAUGAUGCCUGAAGAGCCUUGGUUUUUUG [C22U A105U],-6.8
10,GACUAAUCUGCCCUCGGAGCUCGAGAACAUCUUCGGAUGCAGAGGAGGCAGGCUUCGGUCGCGCGAUAGCGCCAACGUACUCAACCUCCAAUGCAUCCCACCACAUGAUGAUGCCUGAAGAGCCUUGGUUUUUUG [C4U A16G G60C C79A],-4.11
11,GACCAAUCUGCCCUCAGAGCUCGAGAACAUCUUCGGAUGCAGAGGAGGCAGGCUUCGGUGGCGCGAUAGCGCCAACGUCCUCAACCUCCAAUGCAUCCCACCACAUGAUGAUGACUUAAGAGCCUUGGUUUUUUG [C114A G117U],-6.19
12,GACCAAUCUGCCCUCAGAGGUCGAGAACAUCUUCGGAUGCAGAGGAGGCAGGCUUCGGUGGCGCGAUAGCGCCAACGUCCUCAACCUCCAAUGCAUCCGACCACAUGAUCAUGCCUGAAGAGCCUUGGUUUUUUG [C20G C99G G110C],-7.02
13,GACCAAUCUGCCCUCAGAGCUCGAGAACAUCUUCGGGUGCAGAGGAGGCAGGCUUCGGUGGCGCGAUAGCGCCAACGUCCUCAACCUCAAAUGCAUCCCACAACAUGAUGAUGCCUGAAGAGCUUUGGUUUUUUG [A37G C89A C102A C124U],-3.6
14,GACCAAUCUGCAAUCAGAGCUCGAGAACAUCUUCGGAUGCAGAGGAGGCAGGCUUCGGUGGCGCGAUAGCGUCAACGUCCUCAACCUCCAACGCAUCCCACCACAUGAUGAUGCCUAAAGUGUCUUGGUUUUUUG [C12A C13A C72U U92C G117A A121U C123U],-1.56
15,GACCAAUCUGCCCCCAGAGCUCGAGAACAUCUUCGGAUGCAGAGGAGGCAGGGUUCGGUGGCGCGAUAGCGCCCACGUCCUCGACCUCCAAUGUAUCCCACCACAUGAUGAUGCCUGAAGAGCCUUGGUUUUUUG [U14C C53G A74C A83G C94U],-2.55
16,GACCAAUCUGCCCUCAGAGCUCGAGAACAUCUUCGGAUGCAGAGGAGGCAGGCUUCGGUGGCGCGAUAGCGCCAACGUCCUCAACCUCAAAUGCAUCCCACCACAUGAUGAUGUCUGAAGAGCCUUGGUUUUUUG [C89A C114U],-0.329
17,GACCAAUCUGCCCUCAGAGCUCGAGAACAUCUUCGGAUGCAGAAGAGGCAGGCUUCGGUAGCGCGAUAGCGCCAACGUCCUCAACCUCCAAUGCAUCCCACCACAUGAUGAUGCCUGAAGAGCCUUGGUUUUUUG [G44A G60A],-0.624
18,GACCAAUCUGCCCUCAGAGCUCGAGAACAUCUUCGGAUGCAGAGGAGGCCGGCUUCGGUGGCGCGAUAGCGCCAACGUCCUUAACCUCCAAUGCAUCCCACCACAUGAUGAUGCCUUAAGAGCCUUGGUUUUUUG [A50C C82U G117U],-2.93
19,GACCAAUCUGCCCUCAGAGGUCGAGAACAUCUUCGGAUGCAGAGGAGGCAGGCUUCGGUGGCGCGAUAGCGCCAACGUCCUCAACCUCCAAUGCAUCCCACCACAUGAUGAUGCCUGAAGAGACUUGGUUUUUUG [C20G C123A],-4.02
20,GAACAAUCUGCCCUCAGAGCUCGAGAACAUCUUCGGAUGCAGAGGAGACAGGCUUCGGUGGCGCGAUAGCGCCAACGUCCUCAGCCUCCAAUGCAUCCCACCACAUGAUGAUGUCUGAAGAGCCUUGGUUUUUUG [C3A G48A A84G C114U],-3.87
21,GACCAGUCUGCCCUCAGAGCUCGAGAACAUCUUCGGAUGCAGAGGAGGCAGGCUUCGGUGGCGCGAUAGCGCCAACGUCCUCAACCUCCAAUGCAUCCCAACACAUGAUGAUGCGUGAAGAGCCUUGGUUUUUUG [A6G C101A C115G],-1.96
